Residue numbers refer to the chain shown, from its start.
T1: LAG-3-hFc protein (human LAG-3 extracellular region with hFc tag) (human, UniProt P18627 23-450)
T1 construct: also called hLAG-3-hFc; LAG-3 protein; not shown: human IgG Fc fragment (hFc) of the pCpC vector
T1 sequence: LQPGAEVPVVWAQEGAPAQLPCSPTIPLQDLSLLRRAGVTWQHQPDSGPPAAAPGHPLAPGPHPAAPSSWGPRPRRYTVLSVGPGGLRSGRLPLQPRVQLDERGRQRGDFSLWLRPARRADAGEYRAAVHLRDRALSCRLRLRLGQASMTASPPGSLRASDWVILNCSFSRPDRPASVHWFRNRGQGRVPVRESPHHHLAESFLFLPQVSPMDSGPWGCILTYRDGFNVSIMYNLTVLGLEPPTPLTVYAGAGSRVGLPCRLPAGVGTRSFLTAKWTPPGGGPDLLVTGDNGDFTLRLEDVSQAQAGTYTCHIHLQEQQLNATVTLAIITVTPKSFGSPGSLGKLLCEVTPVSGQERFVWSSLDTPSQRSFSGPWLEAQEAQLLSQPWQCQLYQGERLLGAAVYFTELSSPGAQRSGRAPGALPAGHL

T2: human LAG-3 protein with hFc tag (hLAG-3-hFc protein) (human, UniProt P18627 23-450)
T2 construct: also called immunogen 1; LAG-3 extracellular domain protein; not shown: human IgG Fc fragment (hFc) of the pCpC vector
T2 sequence: T1 sequence

T3: human LAG-3 on cells (HEK293-hLAG-3 stable cell line) (human, UniProt P18627 23-525)
T3 sequence: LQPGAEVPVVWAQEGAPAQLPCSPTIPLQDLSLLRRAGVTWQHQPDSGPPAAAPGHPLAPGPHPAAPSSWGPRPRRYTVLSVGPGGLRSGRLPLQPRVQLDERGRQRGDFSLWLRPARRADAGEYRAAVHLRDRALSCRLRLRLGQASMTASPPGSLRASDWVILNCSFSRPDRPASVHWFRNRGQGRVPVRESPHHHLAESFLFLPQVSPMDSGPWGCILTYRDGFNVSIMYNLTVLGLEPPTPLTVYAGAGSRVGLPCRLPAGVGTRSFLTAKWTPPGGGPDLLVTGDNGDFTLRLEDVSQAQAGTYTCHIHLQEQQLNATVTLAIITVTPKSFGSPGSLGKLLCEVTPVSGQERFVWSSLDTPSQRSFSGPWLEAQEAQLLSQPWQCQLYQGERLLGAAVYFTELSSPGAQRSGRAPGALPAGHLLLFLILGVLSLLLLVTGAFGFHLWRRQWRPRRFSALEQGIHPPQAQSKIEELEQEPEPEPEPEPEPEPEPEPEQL

T4: human LAG-3 (full length, on the cell surface) (human, UniProt P18627 23-525)
T4 construct: Full-length human LAG-3 expressed on cells; also called HEK293-hLAG-3; HEK293 cells transfected with LAG-3 gene
T4 sequence: T3 sequence

B1: 556F6B8 mouse-human chimeric antibody (antibody, V domains shown)
VH: RVQLKQSGPGLVQPSQSLSITCTVSGFSLIKYGVHWVRQSPGEGLEWLGVIWRGGITDYNAAFMSRLSITKDNSKSQVFFKMNSLQADDTAIYYCAKWDGPLAMDYWGQGTSVTVSS
VL: DIVMTQSHKFLSTSVGDRVSITCKASQDVGTTVAWYQQKPGQSPKLLIYWASTRHTGVPDRFTGSGSGTDFTLTISNVQSEDLADYFCQQYSSYPYTFGGGTKLEIK
notes: also called mAb123-556F6B8; 556F8B8
B2: 105F1E10 mouse-human chimeric antibody (antibody, V domains shown)
VH: EVQLQQSGPELVKPGASVKMSCRASGYTFTDFKMHWMKQSHGKSLEWIGYIAPNNGGTAYNQKFRGKATLTVNESSNTAYMELRSLTSEDSAVYYCVDWDDVDYWGQGTTLTVSS
VL: DIKMTQSPSSMYASLGERVTITCKASQDINSYLSWFQQKSGKSPKTLIYRANRLVDGVPSRFSGSGSGQDYSLTISSLEYEDMGIYYCLQYVEFPLTFGAGTKLELK
notes: also called mAb009-105F1E10
B3: 405B8H3 mouse-human chimeric antibody (antibody, V domains shown)
VH: QVQLQQSGAELVRPGASVTLSCKASGYTFTDYEMHWVKQTPVHGLEWIGATDPETGNSAYNQKFKGKAIMTADKSSSTAYMELRSLTSEDSAVYYCISTGWNDWGQGTSLTVSS
VL: B2 VL with S40P, N52D, V55L, E81G, V92D, L96Y, A100G, L106I
notes: also called mAb103-405B8H3
B4: 409B11E12 mouse-human chimeric antibody (antibody, V domains shown)
VH: B3 VH with P41T, G56S, N57Y, M70L, S98A
VL: B2 VL with I2L, S40P, V55L, V92D, L96Y, A100G, L106I
notes: also called mAb104-409B11E12
B5: 409D4E10 mouse-human chimeric antibody (antibody, V domains shown)
VH: B3 VH with Y27N, G56D, S58T, M70L, A72T, S98T, T99S
VL: B2 VL with S40P, V55L, V92N, L96Y, A100G, L106I
notes: also called mAb112-409D4E10
B6: 556F6B8 (LAG-3 mouse-human chimeric antibody) (antibody, V domains shown)
VH: B1 VH
VL: B1 VL
notes: also called 556F8B8
B7: 105F1E10 (LAG-3 mouse-human chimeric antibody) (antibody, V domains shown)
VH: B2 VH
VL: B2 VL
B8: 405B8H3 (LAG-3 mouse-human chimeric antibody) (antibody, V domains shown)
VH: B3 VH
VL: B2 VL with S40P, N52D, V55L, E81G, V92D, L96Y, A100G, L106I
notes: also called mouse-human chimeric antibody 405B8H3
B9: 409B11E12 (LAG-3 mouse-human chimeric antibody) (antibody, V domains shown)
VH: B3 VH with P41T, G56S, N57Y, M70L, S98A
VL: B2 VL with I2L, S40P, V55L, V92D, L96Y, A100G, L106I
B10: 409D4E10 (LAG-3 mouse-human chimeric antibody) (antibody, V domains shown)
VH: B3 VH with Y27N, G56D, S58T, M70L, A72T, S98T, T99S
VL: B2 VL with S40P, V55L, V92N, L96Y, A100G, L106I
B11: 556F6B8 (mouse antibody purified from hybridoma) (antibody, V domains shown)
VH: B1 VH
VL: B1 VL
notes: also called mAb123-556F6B8
B12: 405B8H3 (mouse antibody purified from hybridoma) (antibody, V domains shown)
VH: B3 VH
VL: B2 VL with S40P, N52D, V55L, E81G, V92D, L96Y, A100G, L106I
notes: also called mAb103-405B8H3; 405B81-13
B13: 105F1E10 (mouse antibody purified from hybridoma) (antibody, V domains shown)
VH: B2 VH
VL: B2 VL
notes: also called mAb009-105F1E10
B14: 409B11E12 (mouse antibody purified from hybridoma) (antibody, V domains shown)
VH: B3 VH with P41T, G56S, N57Y, M70L, S98A
VL: B2 VL with I2L, S40P, V55L, V92D, L96Y, A100G, L106I
notes: also called mAb104-409B11E12
B15: 409D4E10 (mouse antibody purified from hybridoma) (antibody, V domains shown)
VH: B3 VH with Y27N, G56D, S58T, M70L, A72T, S98T, T99S
VL: B2 VL with S40P, V55L, V92N, L96Y, A100G, L106I
notes: also called mAb112-409D4E10

These binders were tested against T1, LAG-3-hFc protein (human LAG-3 …) (assay: FACS, inhibition of LAG-3-hFc binding to MHC II on Raji cells, antibody 0.823 nM).
Procedure: (§1) The FACS reaction plate incubating the Raji cells was centrifuged to discard the supernatant. The above mixture was added as 100 μl per well to Raji cells and incubated on ice for 1-2 hours. The plate was washed twice with blocking solution (PBS, 2% fetal bovine serum) by centrifugation, added with 100 microliters of fluorescent (Alexa 488)-labeled secondary antibodies per well, and incubated on ice for 1.0 hours. The plate was washed 2-3 times by centrifugation with blocking solution (PBS, 2% fetal bovine serum), added with 100 microliters of PBS per well to suspend cells, and detected using FACS (FACS Calibur, BD) and the results were analyzed. Wherein, the IgG control was murine IgG, and the data in the table is the inhibition rate (%).

Compared with B1, B2 is lower in “Inhibition rate (%)” value: 29.7% for the first, -0.3% for the second.

Going from B3 to B4, the “Inhibition rate (%)” value rises from 17.5% to 24.4%.

B5 was tested, and the “Inhibition rate (%)” value was 20.9%.

The binders below were run against T1, LAG-3-hFc protein (human LAG-3 …) (assay: FACS, inhibition of LAG-3-hFc binding to MHC II on Raji cells, antibody 200.000 nM).
Procedure: as §1

Compared with B1, B2 is higher in “Inhibition rate (%)” value: 95.2% for the first, 96% for the second.

First: B3
Second: B4
The “Inhibition rate (%)” value of the first is higher: 95.2% for the first, 94.8% for the second.

With B5 the “Inhibition rate (%)” value was 95.7%.

The binders below were run against T2, human LAG-3 protein with hFc tag … (assay: ELISA, hLAG-3-hFc coated; 6.6667 nM).
Procedure: The plate was sealed with plastic film and incubated overnight at 4° C. The plate was washed 2 times with the plate washing solution (PBS+0.01% Tween20) on the next day, and added with the blocking solution (PBS+0.01% Tween20+1% BSA) and blocked at room temperature for 1-2 hours. The blocking solution was poured out, and the plate was added with 50-100 μl of the antibody sample to be tested to each well, incubated at 37° C. for 1-2 hours, and washed 2-3 times with a plate washing solution (PBS+0.01% Tween20). HRP (horseradish peroxidase) labeled secondary antibody was added, and the plate was incubated at 37° C. for 1-2 hours, and washed 2-3 times with a plate washing solution (PBS+0.01% Tween20). 100 μl of TMB substrate was added to each well. After incubated at room temperature for 15-30 minutes, the plate was added with 100 μl of stop solution (1.0N HCl) to each well.

First: B6
Second: B7
The OD450 of the first is higher: 3.73 OD450 for the first, 3.53 OD450 for the second.

Compared with B8, B9 is higher in OD450: 3.54 OD450 for the first, 3.64 OD450 for the second.

For B10, the OD450 was 3.73 OD450.

What follows are binders tested against T3, human LAG-3 on cells (HEK293-hLAG-3 …) (assay: FACS, HEK293-hLAG-3, antibody 40.000 nM).
Excerpt: (§2) The pIRES plasmid with the monkey-derived full-length gene was transfected into the HEK293 cell line to construct a HEK293 stable cell line containing monkey LAG-3 (herein referred to as HEK293-cLAG-3 stable cell line). The HEK293-hLAG-3 stable cell line and HEK293-cLAG-3 stable cell line were expanded in a T-75 cell culture flask to a 90% confluence. The medium was aspirated, and the cells were washed with HBSS (Hanks' Balanced Salt Solution) 1-2 times, then treated with a enzyme-free cell dissociation fluid (Versene solution: Life technology) and the cells were collected. The cells were washed with HBSS buffer for 1-2 times. After counted, the cells were diluted with HBSS to 1-2×10⁶ cells per ml, added with 1% goat serum blocking solution, incubated on ice for 20-30 minutes, and then washed with HBSS for 2 times by centrifugation. The collected cells were suspended in the FACS buffer (HBSS+1% BSA) to 2×10⁶ cells/ml, added as 100 microliters per well to a 96-well FACS reaction plate, added with 100 microliters per well of the antibody sample to be tested, incubated on ice for 1-2 hours. The plate was washed twice with the FACS buffer by centrifugation, added with 100 microliters of fluorescent (Alexa 488)-labeled secondary antibodies per well, and incubated on ice for 0.5-1.0 hours. The plate was washed 2-3 times with FACS buffer by centrifugation, added with 100 μl fixative solution (4% Paraformaldehyde) per well to suspend the cells. 5-10 minutes later, it was washed 1-2 times with FACS buffer by centrifugation. The cells were suspended with 100 microliters of FACS buffer, FACS (FACSCalibur, BD) was used for detection and the results were analyzed.

Going from B1 to B2, the Mean fluorescence intensity rises from 123 to 146.

First: B3
Second: B4
The Mean fluorescence intensity of the first is higher: 158 for the first, 150 for the second.

For B5, the Mean fluorescence intensity was 140.

These binders were tested against T4, human LAG-3 (full length, on the cell …) (assay: FACS, HEK293-hLAG-3; 0.000 nM).
Excerpt: as §2

Compared with B11, B12 is higher in Mean fluorescence intensity: 2.8 MFI for the first, 3.7 MFI for the second.

First: B13
Second: B14
The Mean fluorescence intensity of the first is higher: 3.7 MFI for the first, 2.5 MFI for the second.

For B15, the Mean fluorescence intensity was 2.8 MFI.

Source: patent publication US20210155689A1 (SHANGHAI PHARMAEXPLORER, published 2021)
